Experimental data reported in US20080299638A1 (priority 2004, published 2008).
Values joined by “and” are separate entries in the source; they are usually repeats but may differ in a detail not shown here. Identical values can stand only once.

Columns and labels:
[1] = tested on: 2.2.15 cells; test: Arginase toxicity to cells (CPE method, Reed-Muench); format: cell-based, human; conditions: 8 days drug addition
Experimental: Divide experiment into control group and test groups with different drug concentration. Digest cells, dilute to 200,000 cells/ml, transfer to culture plate, 100 μl per well for 96-well plate, incubate for 24 hours under 5% CO2 at 37° C., ready for experiment when cells grown into monolayer. […] Observe cytopathological changes, 8 days or 4 days under microscope, totally destroyed is 4; 75% destroyed is 3; 50% destroyed is 2, 25% destroyed is 1; no changes is 0. Calculate TC50 and TC0 according to Reed-Muench Method:
A=log>50% drug concentration; B=log<50% drug concentration; C=log times of dilution
Starting from 40 IU/ml and subsequently 20, 10, 5, 2.5 IU/ml, change drug solution every 4 days until 8 days, observe cytopathological changes under microscope, and check for CPE with microscope.

[2] = tested on: HBsAg; test: Suppression of HBsAg secretion in 2.2.15 cells (radioimmunoassay, cpm); format: cell-based, hepatitis B virus; conditions: for HBsAg IC50: first batch
Experimental: Grow 200000 cells/ml 2.2.15 cell on 24-well plate, 1 ml per well, incubate for 24 hours under 5% CO2 at 37° C. […] 4 wells per concentration, incubate under 5% CO2 at 37° C., change drug solution every 4 days with the same concentration, retrieve culture medium at day 8, preserve at −20° C. Repeat experiment for 2 batches, test for HBsAg and HBeAg separately. Check cpm value for each wells using γ-counter.
Calculating drug effectiveness: calculate the mean and standard deviation of cpm from the cell control group and groups with different drug concentration, P/N value and percent suppression, IC50 and SI. • (1)
[formula] • (2) Calculate IC50 for drug suppression of antigen:
[formula] • (4) Calculate the cpm differences between HBsAg and HBeAg in different dilutions and control groups by t-test.

[3] = tested on: HBV-DNA in supernatant of 2.2.15 cell culture; test: HBV-DNA dot blot in supernatant of 2.2.15 cell culture; format: cell-based, hepatitis B virus
Experimental: Extraction of HBV-DNA from 2.2.15 cells supernatant: Grow 200000 cells/ml 2.2.15 cell on 24-well plate, 1 ml per well, add drugs after 24 hours incubation, change drug solution every 4 days with the same concentration, collect supernatant from cell culture after 8 days of incubation counted from the day drugs added into the culture, precipitate with polyethylene glycol, digest with proteinase K, extract with phenol:chloroform:isopentanol, nucleic acid precipitation by absolute ethanol and so on procedures, vacuum dry, re-dissolve in TE buffer as sample.
Dot blot: place dots: take 20 μl sample (contains 25 μg DNA), denature, neutralize, serial dilute 20×SSC buffer to 1:8 dilution on nitrocellulose membrane, oven dry, pre-hybridize, hybridize, wash membrane, radioactive self exposure and so on procedures. Develop X ray film with conventional method. Scan developed film with scanner, measure density with gel-pro software, calculate suppression rate and IC50.

[4] = tested on: HBV-DNA in 2.2.15 cells; test: HBV-DNA Southern blot in 2.2.15 cells; format: cell-based, hepatitis B virus
Experimental: Southern blot: Extraction of HBV-DNA from 2.2.15 cells: add drugs and incubate 2.2.15 cells for 8 days, remove medium and harvest cells, lyse cells with lysis solutions, extracts with equal volume phenol:chloroform:isopentanol twice, add absolute ethanol to precipitate nucleic acid, vacuum dry, re-dissolve in 20 μl TE buffer, add DNA sample buffer, put samples into agarose gel for electrophoresis. After electrophoresis, denature, neutralize and transfer to membrane. Oven dry, hybridize, expose with dot blotting the same time. Scan developed film with scanner, analyze relative density with gel-pro software, and calculate suppression rate and IC50.

[5] = Arginase 2.5 μg/ml (unit as headed), batch 1, day 8
[6] = Arginase 2.5 μg/ml (unit as headed), batch 2, day 8
[7] = Arginase 5 μg/ml (unit as headed), batch 1, day 8
[8] = Arginase 5 μg/ml (unit as headed), batch 2, day 8
[9] = Arginase 10 μg/ml (unit as headed), batch 1, day 8
[10] = Arginase 10 μg/ml (unit as headed), batch 2, day 8
[11] = Arginase 20 μg/ml (unit as headed), batch 1, day 8
[12] = Arginase 20 μg/ml (unit as headed), batch 2, day 8

B1: Arginase: Pegylated recombinant human arginase (BCT-100); human arginase I with N-terminal six-histidine tag, SEQ ID NO: 3 (protein, listed as Homo sapiens)
chain: MHHHHHHMSAKSRTIGIIGAPFSKGQPRGGVEEGPTVLRKAGLLEKLKEQECDVKDYGDLPFADIPNDSPFQIVKNPRSVGKASEQLAGKVAQVKKNGRISLVLGGDHSLAIGSISGHARVHPDLGVIWVDAHTDINTPLTTTSGNLHGQPVSFLLKELKGKIPDVPGFSWVTPCISAKDIVYIGLRDVDPGEHYILKTLGIKYFSMTEVDRLGIGKVMEETLSYLLGRKKRPIHLSFDVDGLDPSFTPATGTPVVGGLTYREGLYITEEIYKTGLLSGLDIMEVNPSLGKTPEEVTRTVNTAVAITLACFGLAREGNHKPIDYLNPPK
modifications: PEGylated
TC50 [1]: 40 IU/ml
TC0 ([1]; listed as pegylated recombinant arginase): 20±0 IU/ml
Suppression of HBsAg secretion (result in words) ([2]; 2.2.15 cells, 8 days incubation, TC0 concentration and dilutions): significantly inhibits
HBsAg (CPM) % suppression ([2]; Arginase 1.25 IU/ml, batch 2, day 8): 4.463%
HBsAg (CPM) % suppression ([2]; Arginase 1.25 IU/ml, two batches average line, day 8): 4.46%
HBsAg (CPM) % suppression ([2]; Arginase 2.5 IU/ml, batch 1, day 8): 37.18% and 37.1787%
HBsAg (CPM) % suppression ([2]; Arginase 2.5 IU/ml, batch 2, day 8): 2.6073%
HBsAg (CPM) % suppression ([2]; Arginase 2.5 IU/ml, two batches average, day 8): 19.92 ± 24.40%
HBsAg (CPM) % suppression ([2]; Arginase 5 IU/ml, batch 1, day 8): 42.29% and 42.2871%
HBsAg (CPM) % suppression ([2]; Arginase 5 IU/ml, batch 2, day 8): 1.4739%
HBsAg (CPM) % suppression ([2]; Arginase 5 IU/ml, two batches average, day 8): 21.88 ± 28.86%
HBsAg (CPM) % suppression ([2]; Arginase 10 IU/ml, batch 1, day 8): 47.97% and 47.9651%
HBsAg (CPM) % suppression ([2]; Arginase 10 IU/ml, batch 2, day 8): 6.0761%
HBsAg (CPM) % suppression ([2]; Arginase 10 IU/ml, two batches average, day 8): 27.02 ± 29.62%
HBsAg (CPM) % suppression ([2]; Arginase 20 IU/ml, batch 1, day 8): 49.16% and 49.1558%
HBsAg (CPM) % suppression ([2]; Arginase 20 IU/ml, two batches average, day 8): 29.81±27.35%
HBsAg (CPM) % suppression ([2]; Arginase 20 IU/ml, two batches average, day 8, listed as pegylated recombinant arginase): 29.81±27.35%
HBsAg IC50 ([2]; day 8): (1)10.72 IU/ml
HBsAg IC50 ([2]; day 8, listed as pegylated recombinant arginase): 10.72 IU/ml
% suppression of HBV-DNA in cell culture supernatant ([3]; Arginase 1.25 μg/ml (unit as headed), batch 2, day 8): 15.7769%
HBV-DNA in cell culture supernatant, Original Solution (IOD) ([3]; Arginase 1.25 μg/ml (unit as headed), batch 2, day 8, control 4651.67): 3917.78 IOD
% suppression of HBV-DNA in cell culture supernatant [3, 5]: 24.9152%
HBV-DNA in cell culture supernatant, Original Solution (IOD) ([3]; Arginase 2.5 μg/ml (unit as headed), batch 1, day 8, control 2375.1): 1783.34 IOD
% suppression of HBV-DNA in cell culture supernatant [3, 6]: 11.466%
HBV-DNA in cell culture supernatant, Original Solution (IOD) ([3]; Arginase 2.5 μg/ml (unit as headed), batch 2, day 8, control 4651.67): 4118.31 IOD
% suppression of HBV-DNA in cell culture supernatant [3, 7]: 11.9877%
HBV-DNA in cell culture supernatant, Original Solution (IOD) ([3]; Arginase 5 μg/ml (unit as headed), batch 1, day 8, control 2375.1): 2090.38 IOD
% suppression of HBV-DNA in cell culture supernatant [3, 8]: 43.8243%
HBV-DNA in cell culture supernatant, Original Solution (IOD) ([3]; Arginase 5 μg/ml (unit as headed), batch 2, day 8, control 4651.67): 2613.11 IOD
% suppression of HBV-DNA in cell culture supernatant [3, 9]: 29.2409%
HBV-DNA in cell culture supernatant, Original Solution (IOD) ([3]; Arginase 10 μg/ml (unit as headed), batch 1, day 8, control 2375.1): 1680.6 IOD
% suppression of HBV-DNA in cell culture supernatant [3, 10]: 38.0549%
HBV-DNA in cell culture supernatant, Original Solution (IOD) ([3]; Arginase 10 μg/ml (unit as headed), batch 2, day 8, control 4651.67): 2881.48 IOD
% suppression of HBV-DNA in cell culture supernatant [3, 11]: 30.8113%
HBV-DNA in cell culture supernatant, Original Solution (IOD) ([3]; Arginase 20 μg/ml (unit as headed), batch 1, day 8, control 2375.1): 1643.3 IOD
% suppression of HBV-DNA in cell culture supernatant [3, 12]: 47.7577%
HBV-DNA in cell culture supernatant, Original Solution (IOD) ([3]; Arginase 20 μg/ml (unit as headed), batch 2, day 8, control 4651.67): 2430.14 IOD
IC50, HBV-DNA dot blot in supernatant ([3]; batch 1, 8 days of incubation): 16.04 IU/ml
IC50, HBV-DNA dot blot in supernatant ([3]; batch 2, 8 days of incubation): 10.31 IU/ml
IC50, HBV-DNA dot blot in supernatant ([3]; two batches average, 8 days of incubation): 13.18 IU/ml
IC50, HBV-DNA dot blot in supernatant ([3]; two batches average, 8 days of incubation, listed as arginase): 13.18±4.05 IU/ml
IC50, HBV-DNA dot blot in supernatant ([3]; two batches average, 8 days of incubation, listed as pegylated recombinant arginase): 13.18±0.45 IU/ml
Effect on HBV-DNA in cells (result in words) ([4]; 2.2.15 cells, 8 days): lowers
HBV-DNA Southern Blot In Lane % Suppression [4, 5]: 31.6525%
HBV-DNA Southern Blot Sum % Suppression [4, 5]: 26.4131%
HBV-DNA Southern Blot Sum (IOD) ([4]; Arginase 2.5 μg/ml (unit as headed), batch 1, day 8, control 29421): 21650 IOD
HBV-DNA Southern Blot In Lane (IOD) ([4]; Arginase 2.5 μg/ml (unit as headed), batch 1, day 8, control 42082): 28762 IOD
HBV-DNA Southern Blot In Lane % Suppression [4, 6]: 38.6255%
HBV-DNA Southern Blot Sum % Suppression [4, 6]: 0%
HBV-DNA Southern Blot Sum (IOD) ([4]; Arginase 2.5 μg/ml (unit as headed), batch 2, day 8, control 66143): 68619 IOD
HBV-DNA Southern Blot In Lane (IOD) ([4]; Arginase 2.5 μg/ml (unit as headed), batch 2, day 8, control 76188): 88350 IOD
HBV-DNA Southern Blot In Lane % Suppression [4, 7]: 31.5717%
HBV-DNA Southern Blot Sum % Suppression [4, 7]: 31.6679%
HBV-DNA Southern Blot Sum (IOD) ([4]; Arginase 5 μg/ml (unit as headed), batch 1, day 8, control 29421): 20104 IOD
HBV-DNA Southern Blot In Lane (IOD) ([4]; Arginase 5 μg/ml (unit as headed), batch 1, day 8, control 42082): 28796 IOD
HBV-DNA Southern Blot In Lane % Suppression [4, 8]: 19.0752%
HBV-DNA Southern Blot Sum % Suppression [4, 8]: 30.0259%
HBV-DNA Southern Blot Sum (IOD) ([4]; Arginase 5 μg/ml (unit as headed), batch 2, day 8, control 66143): 46283 IOD
HBV-DNA Southern Blot In Lane (IOD) ([4]; Arginase 5 μg/ml (unit as headed), batch 2, day 8, control 76188): 61655 IOD
HBV-DNA Southern Blot In Lane % Suppression [4, 9]: 22.7722%
HBV-DNA Southern Blot Sum % Suppression [4, 9]: 17.6303%
HBV-DNA Southern Blot Sum (IOD) ([4]; Arginase 10 μg/ml (unit as headed), batch 1, day 8, control 29421): 24234 IOD
HBV-DNA Southern Blot In Lane (IOD) ([4]; Arginase 10 μg/ml (unit as headed), batch 1, day 8, control 42082): 32499 IOD
HBV-DNA Southern Blot In Lane % Suppression [4, 10]: 13.0559%
HBV-DNA Southern Blot Sum % Suppression [4, 10]: 29.1172%
HBV-DNA Southern Blot Sum (IOD) ([4]; Arginase 10 μg/ml (unit as headed), batch 2, day 8, control 66143): 46884 IOD
HBV-DNA Southern Blot In Lane (IOD) ([4]; Arginase 10 μg/ml (unit as headed), batch 2, day 8, control 76188): 66241 IOD
HBV-DNA Southern Blot In Lane % Suppression [4, 11]: 25.2982%
HBV-DNA Southern Blot Sum % Suppression [4, 11]: 14.9893%
HBV-DNA Southern Blot Sum (IOD) ([4]; Arginase 20 μg/ml (unit as headed), batch 1, day 8, control 29421): 25011 IOD
HBV-DNA Southern Blot In Lane (IOD) ([4]; Arginase 20 μg/ml (unit as headed), batch 1, day 8, control 42082): 31436 IOD
HBV-DNA Southern Blot In Lane % Suppression [4, 12]: 38.6255%
HBV-DNA Southern Blot Sum % Suppression [4, 12]: 47.9416%
HBV-DNA Southern Blot Sum (IOD) ([4]; Arginase 20 μg/ml (unit as headed), batch 2, day 8, control 66143): 34433 IOD
HBV-DNA Southern Blot In Lane (IOD) ([4]; Arginase 20 μg/ml (unit as headed), batch 2, day 8, control 76188): 46760 IOD
HBV-DNA Southern Blot Sum IC50 ([4]; batch 1, 8 days): 25.42 IU/ml
HBV-DNA Southern Blot In Lane IC50 ([4]; batch 1, day 8): 21.45 IU/ml
HBV-DNA Southern Blot Sum IC50 ([4]; batch 2, 8 days): 14.17 IU/ml
HBV-DNA Southern Blot In Lane IC50 ([4]; batch 2, day 8): 18.67 IU/ml
HBV-DNA Southern Blot Sum IC50 ([4]; two batches average, 8 days): 19.79±7.95 IU/ml
HBV-DNA Southern Blot In Lane IC50 ([4]; two batches average, day 8): 20.06±1.96 IU/ml
